Assay results as given in US20170030891A1, “BLOOD CONDITION ANALYSIS DEVICE, BLOOD CONDITION ANALYSIS SYSTEM, BLOOD CONDITION ANALYSIS METHOD, AND PROGRAM” (SONY CORPORATION, priority 2014, published 2017).

Tested on: fibrinolysis system of the blood
Assay: complex permittivity at 10 MHz of blood samples with fibrinolysis system promotor (tPA) and inhibitor (aprotinin)
Conditions: blood sample of tPA=8 and aprotinin=0, FIG. 9
Method: In addition, for example, in the case where the fibrinolysis system is evaluated, examples of coagulation factors to be evaluated include plasminogen and plasmin. In that case, as a drug to be added to the blood sample, an activator or inhibitor of plasminogen or plasmin is usable. FIG. 9 is a diagram showing time-dependent changes in the real part (∈′) of the complex permittivity at 10 MHz of blood samples having different fibrinolysis system promotor (tPA) and fibrinolysis system inhibitor (aprotinin) concentrations.
For the evaluation of the fibrinolysis-system blood, for example, a value obtained by dividing the amplitude after 30 minutes from the time B shown in FIGS. 2A-2B by the amplitude at the time B (LI30: the source of clot firmness after a predetermined period of time from the maximum firmness accompanying fibrinolysis) can be used as an evaluation parameter.

B1: tPA: fibrinolysis system promotor (protein, UniProt P00750 36-562, looked up)
Tissue-type plasminogen …: SYQVICRDEKTQMIYQQHQSWLRPVLRSNRVEYCWCNSGRAQCHSVPVKSCSEPRCFNGGTCQQALYFSDFVCQCPEGFAGKCCEIDTRATCYEDQGISYRGTWSTAESGAECTNWNSSALAQKPYSGRRPDAIRLGLGNHNYCRNPDRDSKPWCYVFKAGKYSSEFCSTPACSEGNSDCYFGNGSAYRGTHSLTESGASCLPWNSMILIGKVYTAQNPSAQALGLGKHNYCRNPDGDAKPWCHVLKNRRLTWEYCDVPSCSTCGLRQYSQPQFRIKGGLFADIASHPWQAAIFAKHRRSPGERFLCGGILISSCWILSAAHCFQERFPPHHLTVILGRTYRVVPGEEEQKFEVEKYIVHKEFDDDTYDNDIALLQLKSDSSRCAQESSVVRTVCLPPADLQLPDWTECELSGYGKHEALSPFYSERLKEAHVRLYPSSRCTSQHLLNRTVTDNMLCAGDTRSGGPQANLHDACQGDSGGPLVCLNDGRMTLVGIISWGLGCGQKDVPGVYTKVTNYLDWIRDNMRP
  characteristics of time-dependent change of ∈′ at 10 MHz: exhibits similar characteristics to the blood of a patient with the fibrinolysis system promoted
